For three molecules, Kd and fold improvement of KD against the construct with the original linker results are on record in patent US20180369334A1 (Stanford University, published 2018).

Experiment [1] concerns the target human endothelial cells (HUVECs). Nature of the experiment: binding to HUVEC; the column prints only 'HUVEC (nM)'.
Experiment [2] has as its target T1, VEGFR2 (on PAE-VEGFR2 cells) (UniProt P35968 20-1356, limits assumed).
T1 construct: whole, on cells
Nature of the experiment: binding to PAE-VEGFR2 cells; the column prints only 'VEGFR2 (nM)'.

The target of experiment [3] is T2, VEGFR1 (on PAE-VEGFR1 cells) (UniProt P17948 27-1338, limits assumed).
T2 construct: whole, on cells
T2 sequence (P17948 27-1338 limits assumed): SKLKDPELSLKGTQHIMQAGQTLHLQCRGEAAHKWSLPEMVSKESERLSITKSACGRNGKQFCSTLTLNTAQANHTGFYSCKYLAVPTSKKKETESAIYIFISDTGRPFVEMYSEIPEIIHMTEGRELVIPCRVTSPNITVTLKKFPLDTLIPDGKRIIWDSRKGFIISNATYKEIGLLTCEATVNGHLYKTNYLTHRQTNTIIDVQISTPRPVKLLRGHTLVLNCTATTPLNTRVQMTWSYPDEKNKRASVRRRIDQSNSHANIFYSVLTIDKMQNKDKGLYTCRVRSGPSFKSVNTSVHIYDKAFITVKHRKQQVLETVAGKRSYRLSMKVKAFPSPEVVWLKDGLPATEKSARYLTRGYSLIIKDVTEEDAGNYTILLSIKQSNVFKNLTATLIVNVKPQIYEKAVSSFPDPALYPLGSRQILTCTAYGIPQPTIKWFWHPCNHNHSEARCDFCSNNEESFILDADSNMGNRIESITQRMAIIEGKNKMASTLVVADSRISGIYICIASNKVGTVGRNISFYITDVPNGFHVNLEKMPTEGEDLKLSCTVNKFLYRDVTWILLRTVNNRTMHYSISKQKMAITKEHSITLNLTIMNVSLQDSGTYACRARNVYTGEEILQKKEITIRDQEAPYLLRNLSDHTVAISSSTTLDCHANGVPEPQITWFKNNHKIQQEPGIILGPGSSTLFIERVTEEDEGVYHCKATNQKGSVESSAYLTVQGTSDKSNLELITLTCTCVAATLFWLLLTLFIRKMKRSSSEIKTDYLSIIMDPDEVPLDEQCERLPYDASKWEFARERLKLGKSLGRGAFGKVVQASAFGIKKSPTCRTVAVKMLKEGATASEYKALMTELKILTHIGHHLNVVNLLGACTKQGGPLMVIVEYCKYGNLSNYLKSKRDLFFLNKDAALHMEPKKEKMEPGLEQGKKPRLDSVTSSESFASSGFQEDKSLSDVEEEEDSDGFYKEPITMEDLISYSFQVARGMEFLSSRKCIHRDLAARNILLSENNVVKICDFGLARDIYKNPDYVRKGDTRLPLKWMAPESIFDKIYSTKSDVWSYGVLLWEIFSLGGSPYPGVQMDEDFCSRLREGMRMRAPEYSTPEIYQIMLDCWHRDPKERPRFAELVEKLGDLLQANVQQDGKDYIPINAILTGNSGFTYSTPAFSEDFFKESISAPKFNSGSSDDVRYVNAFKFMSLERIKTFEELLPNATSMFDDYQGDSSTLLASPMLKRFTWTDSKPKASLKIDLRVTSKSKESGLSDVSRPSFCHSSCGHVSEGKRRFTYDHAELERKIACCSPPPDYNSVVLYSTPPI
Nature of the experiment: binding to PAE-VEGFR1 cells; the column prints only 'VEGFR1 (nM)', the text calls it an affinity.

The target in experiment [4] is human endothelial cells (HUVECs). Description: cell binding assay on human endothelial cells.

T1 sequence (P35968 20-1356 limits assumed): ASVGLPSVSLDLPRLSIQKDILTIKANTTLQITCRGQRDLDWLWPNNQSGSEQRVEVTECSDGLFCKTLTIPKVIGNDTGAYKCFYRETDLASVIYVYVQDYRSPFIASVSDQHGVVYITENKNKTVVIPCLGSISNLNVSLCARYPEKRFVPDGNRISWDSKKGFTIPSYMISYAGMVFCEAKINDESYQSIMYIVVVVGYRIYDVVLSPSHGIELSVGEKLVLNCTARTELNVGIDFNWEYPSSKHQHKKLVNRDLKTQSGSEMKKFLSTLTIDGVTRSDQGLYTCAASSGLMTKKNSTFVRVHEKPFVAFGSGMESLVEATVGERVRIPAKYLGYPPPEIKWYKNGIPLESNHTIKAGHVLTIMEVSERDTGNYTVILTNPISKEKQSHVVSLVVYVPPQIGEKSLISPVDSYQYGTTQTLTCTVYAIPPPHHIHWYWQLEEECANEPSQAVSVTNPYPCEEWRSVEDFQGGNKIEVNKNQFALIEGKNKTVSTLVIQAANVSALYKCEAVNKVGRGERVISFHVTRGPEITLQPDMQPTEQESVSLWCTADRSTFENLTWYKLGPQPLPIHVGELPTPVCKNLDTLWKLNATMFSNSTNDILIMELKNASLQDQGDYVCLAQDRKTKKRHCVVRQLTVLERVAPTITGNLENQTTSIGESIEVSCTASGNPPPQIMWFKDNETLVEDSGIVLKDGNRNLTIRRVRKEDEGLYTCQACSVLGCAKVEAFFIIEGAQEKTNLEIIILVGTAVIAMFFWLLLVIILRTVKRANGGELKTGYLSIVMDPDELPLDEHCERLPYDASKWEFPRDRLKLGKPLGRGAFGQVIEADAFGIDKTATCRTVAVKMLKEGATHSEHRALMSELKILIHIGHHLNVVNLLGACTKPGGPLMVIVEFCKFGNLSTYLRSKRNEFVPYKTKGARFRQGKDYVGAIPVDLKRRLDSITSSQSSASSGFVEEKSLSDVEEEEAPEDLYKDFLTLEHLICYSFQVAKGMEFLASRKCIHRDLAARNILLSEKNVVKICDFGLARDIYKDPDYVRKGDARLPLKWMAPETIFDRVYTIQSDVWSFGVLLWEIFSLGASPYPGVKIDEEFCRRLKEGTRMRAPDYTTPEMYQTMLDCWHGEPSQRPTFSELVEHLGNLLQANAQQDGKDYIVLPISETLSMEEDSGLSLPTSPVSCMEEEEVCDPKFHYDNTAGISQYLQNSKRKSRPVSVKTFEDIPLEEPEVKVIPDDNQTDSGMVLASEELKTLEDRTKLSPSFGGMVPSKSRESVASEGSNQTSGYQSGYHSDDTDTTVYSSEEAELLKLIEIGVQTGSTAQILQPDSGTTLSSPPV

B1: scVEGFMUT-E (mE, SEQ ID NO.: 55) (ligand)
chain: EVVKAMDVYQRSYCHPIETLVDILQEYPDEIGYIFKPSCVPLMRCGGCCNGAGLECVPTEESNITMQIMRIKPHRGQHIGEMSFLQHNKCECRPKKDGSTSGSGKSSEGKGEVVRFMDVYQRSYCHPIETLVDIFQEYPNEIEYAFKPSCVPLMRCGGCCNNEGLECVPTEESNITMQIMRAKPHQGQHIGEMSFLQHNKCECRPKKD
notes: Chain 1: F36L, E44G, D63G, Q87R; also called scVEGFmE
As for B1, the Kd was 0.4 nM in experiment [1], 0.5 nM in experiment [2] and 0.55 nM in experiment [3].

B2: scVEGF-mE7I (SEQ ID NO: 75), construct with the original linker (ligand)
chain: EVVKAMDVYQRSYCHPIETLVDILQEYPDEIGYIFKPSCVPLMRCGGCCNGAGLECVPTEESNITMQIMRIKPHRGQHIGEMSFLQHNKCECRPKKDGGGGSGGGGSGGGGSGGGGSEVVRFMDVYQRSYCHPIETLVDIFQEYPNEIEYAFKPSCVPLMRCGGCCNNEGLECVPTEESNITMQIMRPSVRRGDSPASHIGEMSFLQHNKCECRPKKD
The molecule B2 registered a Kd in experiment [4] of 0.32 nM.

B3: scVEGF-mE7I construct containing the L3A linker (ligand)
chain: EVVKAMDVYQRSYCHPIETLVDILQEYPDEIGYIFKPSCVPLMRCGGCCNGAGLECVPTEESNITMQIMRIKPHRGQHIGEMSFLQHNKCECRPKKDGGGGSGGGGSGGGGSGGGGSEVVRFMDVYQRSYCHPIETLVDIFQEYPNEIEYAFKPSCVPLMRCGGCCNNEGLECVPTEESNITMQIMRPSVRRGDSPASHIGEMSFLQHNKCECRPKKD
In the case of B3, in experiment [4], the Kd came to 0.16 nM and the fold improvement of KD against the construct with the original linker is 2 fold.
